Laboratory results taken from publication doi:10.1101/2024.12.26.630402 (bioRxiv, 2024).

Target: the molecule itself
Assay: cryo-EM structure

B1: large glutamate dehydrogenase of 180 kDa subunits from Mycobacterium smegmatis (mL-GDH180) (enzyme)
chain: MIRRLSVAFLSTYRGPQADAPGVTSTGPLAVAAHDDLVSDDLVAAHYRLASMRAPGETKAAVYPGDAGSGAALQIVTDQAPMLVDSVTVLLHRHGIAYTAIMNPVFRVRRGLDGELLDVRPAAEAAPGDGADECWILVPITAAADGEALTEATRLVPGILAEARQIGLDSGAMIAALHGLANDLATDLEGHFPNAERKEVAALLRWLADGHFVLLGYQQCVVGDGNAEVDPASRLGVLRLRNDVLPPLTDSDDLLVLAQATMPSYLRYGAYPYIVVVRESPGASRVIEHRFVGLFTVAAMNANALEIPLISRRVEEALAMAHRDPSHPGQLLRDIIQTIPRPELFALSSKQLLEMALAVVDLGSRRRTLLFLRADHLAHFVSCLVYLPRDRYTTAVRLEMQDILVRELGGAGIDYSARVSESPWAVVHFTVRLPEGTAADSVDTSLENESRIQDLLTEATRNWGDRMISAAAAASISPAALEHYAHAFPEDYKQAFAPQDAIADISLIEALQDDSVKLVLADTAEDRVWKLTWYLGGHSASLSELLPMLQSMGVVVLEERPFTLRRTDGLPVWIYQFKISPHPSIPHAPDAEAQRDTAQRFADAVTAIWHGRVEIDRFNELVMRAGLTWQQVVVLRAYAKYLRQAGFPYSQSHIESVLNENPHTTRSLIDLFEALFDPSQETDGRRDAQGAAAAVAADIDALVSLDTDRVLRAFANLIEATLRTNYFVARPDSARARNVLAFKLNPLVIKELPLPRPKFEIFVYSPRVEGVHLRFGFVARGGLRWSDRREDFRTEILGLVKAQAVKNAVIVPVGAKGGFVVKRPPTLTGDAAADREATRAEGVECYRLFISGLLDVTDNVDKATGAVVTPPEVVRRDGEDAYLVVAADKGTATFSDIANEVAKSYGFWLGDAFASGGSIGYDHKAMGITAKGAWESVKRHFREMGVDTQTQDFTVVGIGDMSGDVFGNGMLLSKHIRLVAAFDHRDIFLDPNPDAGRSWDERKRLFDLPRSSWADYDKSLISEGGGVYSRQQKSIPISPQVRTALGLDADVEELTPPALIKAILKAPVDLLWNGGIGTYIKAETEADADVGDRANDQIRVCGNQVRAKVIGEGGNLGVTALGRIEFDLAGGRINTDALDNSAGVDCSDHEVNIKILIDSAVTAGKVTPEERTELLLSMTDEVGELVLADNRDQNDLMGTSRANAASLLSVHARMIKDLVDNRGLNRELEALPSEKEIRRRADAGIGLTSPELATLMAHVKLALKDDVLASDLPDQEVFASRLPYYFPTRLREELHGEIRSHQLRREIITTMLVNDLVDTAGISYAYRITEDVGVGPVDAVRSYVAINAIFGIGDVWRRIRAAGDAGVPTSVTDRMTLDLRRLVDRAGRWLLNYRPQPLAVGAEINRFGAKVAALTPRMSEWLRGDDKAIVSKEAGDFASHGVPEDLAYHIATGLYQYSLLDVIDIADIVDREPDEVADTYFALMDHLGADALLTAVSRLSRDDRWHSLARLAIRDDIYGSLRALCFDVLAVGEPDENGEEKIAEWETTNSSRVTRARRTLTEIYKDGEQDLATLSVAARQIRSMTRTSGTGTTG
B1 was tested, and the “stoichiometry N” value was 4.
